In patent publication US20230256106A1, “DRUG DELIVERY SYSTEM FOR LOCALLY DELIVERING THERAPEUTIC AGENTS AND USES THEREOF” (priority 2020, published 2023):

Format: physicochemical
Settings: about 2.5±1.0 mg/mL conjugate in 10 mM PBS buffer (pH=7.4), 37° C., shaker 100 rpm; […]; average release of free drug per day
With “conjugate of N-(4-(aminomethyl)phenyl)-4-(((3R,4R)-1-(2-cyanoacetyl)-4-methylpiperidin-3-yl)(methyl)amino)-7H-pyrrolo[2,3-d]pyrimidine-7-carbothioamide and HA [Example 23]” the “Release rate (%/day)” value was 1.01%/day.

Same assay, conditions: about 2.5±1.0 mg/mL conjugate in 10 mM PBS buffer (pH=7.4), 37° C., shaker 100 rpm; daily ultrafiltration (30 k), free drug by HPLC; average release of free drug per day
For “conjugate of 3-((3R,4R)-3-((7-(6-amino-2-azaspiro[3.3]heptane-2-carbonyl)-7H-pyrrolo[2,3-d]pyrimidin-4-yl)(methyl)amino)-4-methylpiperidin-1-yl)-3-oxopropanenitrile and HA [Example 81]”, the “Release rate (%/day)” value was 0.28%/day. In the case of “conjugate of 2-azaspiro[3.3]heptan-6-yl-4-(((3R,4R)-1-(2-cyanoacetyl)-4-methylpiperidin-3-yl)(methyl)amino)-7H-pyrrolo[2,3-d]pyrimidine-7-carboxylate and HA [Example 73]”, the “Release rate (%/day)” value is reported as 1.90%/day. In the case of “conjugate of 2-chloroethyl 4-[[(3R,4R)-1-(2-cyanoacetyl)-4-methyl-3-piperidyl]-methyl-amino]pyrrolo[2,3-d]pyrimidine-7-carboxylate and HA [Example 57]”, the “Release rate (%/day)” value is reported as 9.28%/day. With “conjugate between HA (Sodium hyaluronate) and [4-[[(3R,4R)-1-(2-cyanoacetyl)-4-methyl-3-piperidyl]-methyl-amino]pyrrolo[2,3-d]pyrimidin-7-yl]methyl 4-aminobutanoate [Example 69]” the “Release rate (%/day)” value was 16.47%/day. In the case of “conjugate between HA (Sodium hyaluronate) and [4-[[(3R,4R)-1-(2-cyanoacetyl)-4-methyl-3-piperidyl]-methyl-amino]pyrrolo[2,3-d]pyrimidin-7-yl]methyl 2-aminoacetate [Example 68]”, the “Release rate (%/day)” value is reported as 10.81%/day.
